Data published in patent publication US20250109177A1, “EVOLVED PROTEIN DEGRONS” (The Broad Institute, Inc., priority 2022, published 2025).
Where no end group is shown, it is not given here.

Target: CRBN of HEK293T cells, with PT-179 (human) (UniProt Q96SW2)
Test: cell-based or functional assay

Chain of CRBN of HEK293T cells, with PT-179 (human) (Q96SW2 whole entry): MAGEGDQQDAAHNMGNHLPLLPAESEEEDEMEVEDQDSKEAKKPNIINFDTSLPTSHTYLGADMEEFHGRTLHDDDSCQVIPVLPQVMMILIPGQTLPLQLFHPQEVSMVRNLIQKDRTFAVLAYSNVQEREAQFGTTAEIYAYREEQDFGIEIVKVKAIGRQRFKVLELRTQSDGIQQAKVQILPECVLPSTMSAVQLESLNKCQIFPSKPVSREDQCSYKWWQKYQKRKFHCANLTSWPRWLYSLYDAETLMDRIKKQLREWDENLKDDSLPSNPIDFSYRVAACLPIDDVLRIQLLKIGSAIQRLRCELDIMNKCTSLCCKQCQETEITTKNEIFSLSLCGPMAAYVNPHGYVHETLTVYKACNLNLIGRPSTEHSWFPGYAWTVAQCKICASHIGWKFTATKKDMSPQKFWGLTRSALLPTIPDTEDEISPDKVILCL

Row | DC50 of PT-179-induced degradation of degron-tagged eGFP in HEK293T cells [nM] | Binder
1 | 5 | LLLFCPICGFTCRQKGNLLRHINLHTGEKLFKYHLY-eGFP (designed binder, not shown: large carriers, cysteine pairing not given here) [SD40-eGFP (degron fused to the N-terminus of eGFP)]
2 | 14 | SD36-tagged eGFP (degron fused to the N-terminus of eGFP) (designed binder, not shown: large carriers, cysteine pairing not given here) FNVLMVHKRSHTGELLLFCPICGFTCRQKGNLLRHINLHTGEKLFKYHLYNYACQRRDAL-eGFP
